Measured values: US20240024504A1, “SITE-SELECTIVE LYSINE ACETYLATION OF HUMAN IMMUNOGLOBULIN G AND IgG-RELATED PRODUCTS FOR IMMUNOTHERAPY” (The Chinese University of Hong Kong, priority 2022, published 2024)

What was measured:
[1] = biological target: T1, His-tagged human PD-L1 (Homo sapiens, UniProt Q9NZQ7); test: Pull-down assay of modified atezolizumab on PD-L1 loaded Ni-NTA resins; format: binding; details: PD-L1 immobilized on Ni-NTA resins
T1 construct: purchased GenScript
Procedure: (FIG. 16A) A pull-down experiment in vitro. […] (FIG. 16B) FITC labeled PD-L1 was immobilized on Ni-NTA agarose resin through polyhistidine tag.
Ni-NTA agarose resins were resuspended and 20 μL resins were pipetted into a 1.5 mL tube. After washing with PBS-T buffer (phosphate buffered saline supplemented with 0.1% Tween-20), His-tagged human PD-L1 (200 nM) was immobilized on Ni-NTA resins in 100 μL buffer solution (20 mM imidazole, pH 7.4 PBS-T) at room temperature for 1 h with shaking. The binding solution was removed by centrifugation and the resins were washed three times with pH 7.4 PBS-T buffer. Then Atezo-TAMRA (100 nM) was incubated with the resins in 100 μL buffer solution (20 mM imidazole, pH 7.4 PBS-T) for 1 h with shaking. Next, the resins were washed three times with PBS-T and eluted by boiling the beads for 10 min in 2× sample loading buffer. The samples were analyzed by SDS-PAGE. As a negative control, same amount of polyclonal IgG was incubated with the PD-L1 loaded resins. For confocal microscopy, His-tagged human PD-L1 was firstly labelled by FITC.

[2] = test system: PD-L1 positive (PC12) cells; test: Immunofluorescence of modified atezolizumab, confocal microscopy; format: cell-based; details: 150 nM, PBS pH 7.4, 37° C., 15 min
Procedure: FIG. 5A-5B Acetylation of therapeutic antibody and immunofluorescence. (FIG. 5A) Acetylation reaction monitored by SDS-PAGE and fluorescent scanning. Reaction condition: 4 μM antibodies, 24 μM F1, PBS buffer (pH 7.4), at 37° C. for 1 h. The reactions were quenched with 1% SDS and DBCO-TAMRA was added at room temperature for 1.5 h for SPAAC reaction before SDS-PAGE and in-gel fluorescent imaging. Lane M, molecular weight marker; lane 1, M-trastuzumab; lane 2, M-cetuximab; lane 3, M-daratumumab; […], reduced results of […]. […] Incubation conditions: Cells were incubated with modified antibodies (150 nM) in PBS buffer (pH 7.4) at 37° C. for 15 min before the fixation of cells.

[3] = test system: IgG Fc; test: Competition between reactive peptide (F1) and non-reactive peptide; format: biochemical, human; details: non-reactive peptide added to the reaction of F1 and IgG
Procedure: (FIG. 3A) The structures of peptides used in this work. FITC moiety was added at the N-termini of the peptides to MST analysis.

T1 sequence (Q9NZQ7 19-290): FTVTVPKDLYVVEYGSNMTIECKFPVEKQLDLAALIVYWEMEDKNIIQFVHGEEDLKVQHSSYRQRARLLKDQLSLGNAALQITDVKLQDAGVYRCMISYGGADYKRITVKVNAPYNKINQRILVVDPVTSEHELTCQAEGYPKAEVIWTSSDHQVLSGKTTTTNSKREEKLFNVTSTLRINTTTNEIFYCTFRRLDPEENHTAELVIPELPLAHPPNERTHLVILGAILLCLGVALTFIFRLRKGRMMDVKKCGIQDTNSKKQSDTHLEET

| Molecule | binding to PD-L1 (pull-down) [1] | binding to PD-L1 (pull-down) ([1]; listed as acetylated atezolizumab) | binding to cells (immunofluorescence) [2] | effect on the acetylation reaction of F1 and IgG [3] |
| --- | --- | --- | --- | --- |
| M-Atezo: atezolizumab azidoacetylated at Lys248 of the Fc by F1 (DBCO-TAMRA tagged for detection) | reserved the binding ability to PD-L1 | could still bind its ligand | maintained their binding with PD-L1 positive (PC12) cells | – |
| CC(C)C[C@@H]1NC(=O)C(CCC(=O)O)NC(=O)CNC(=O)[C@H](CC(C)C)NC(=O)[C@H](Cc2c[nH]cn2)NC(=O)[C@H](Cc2c[nH]c3ccccc23)NC(=O)[C@H](C)NC(=O)[C@@H](NC(=O)[C@H](CC(=O)O)NC(=O)CCNC(=O)CNC(=S)Nc2ccc(-c3c4ccc(=O)cc-4oc4cc(O)ccc34)c(C(=O)O)c2)CSSC[C@@H](C(=O)N[C@H](C(N)=O)[C@@H](C)O)NC(=O)[C@H](Cc2c[nH]c3ccccc23)NC(=O)[C@H](C(C)C)NC1=O (stereo partly shown) [f-F0] | – | – | – | abolished the acetylation reaction |
